Results published in patent US20160031974A1 (UCB, published 2016).

B1: A26 Fab′-PEG (A26 Fab-40K PEG′ described in WO2010/096418) (Fab, V domains shown)
VH: EVQLVESGGGLVQPGGSLRLSCAASGFTFTNYGIHWIRQAPGKGLEWVASISPSGGLTYYRDSVKGRFTISRDDAKNSPYLQMNSLRAEDTAVYYCATGGEGIFDYWGQGTLVTVSS
VL: DIQMTQSPSSLSASVGDRVTITCRATQSIYNALAWYQQKPGKAPKLLIYNANTLHTGVPSRFSASGSGTDSTLTISSLQPEDFATYYCQQYYDYPLTFGGGTKVEIKR
modifications: 40K PEG; site of attachment not given
B2: A26 Fab′ (Fab, V domains shown)
VH: B1 VH
VL: B1 VL
B3: A26 Fab-dsFv (645gH5gL4) (bispecific antibody)
heavy: EVQLVESGGGLVQPGGSLRLSCAASGFTFTNYGIHWIRQAPGKGLEWVASISPSGGLTYYRDSVKGRFTISRDDAKNSPYLQMNSLRAEDTAVYYCATGGEGIFDYWGQGTLVTVSSASTKGPSVFPLAPSSKSTSGGTAALGCLVKDYFPEPVTVSWNSGALTSGVHTFPAVLQSSGLYSLSSVVTVPSSSLGTQTYICNVNHKPSNTKVDKKVEPKSCSGGGGSGGGGTGGGGSEVQLLESGGGLVQPGGSLRLSCAVSGIDLSNYAINWVRQAPGKCLEWIGIIWASGTTFYATWAKGRFTISRDNSKNTVYLQMNSLRAEDTAVYYCARTVPGYSTAPYFDLWGQGTLVTVSS
light: DIQMTQSPSSLSASVGDRVTITCRATQSIYNALAWYQQKPGKAPKLLIYNANTLHTGVPSRFSASGSGTDSTLTISSLQPEDFATYYCQQYYDYPLTFGGGTKVEIKRTVAAPSVFIFPPSDEQLKSGTASVVCLLNNFYPREAKVQWKVDNALQSGNSQESVTEQDSKDSTYSLSSTLTLSKADYEKHKVYACEVTHQGLSSPVTKSFNRGECGGGGSGGGGSGGGGSDIQMTQSPSSVSASVGDRVTITCQSSPSVWSNFLSWYQQKPGKAPKLLIYEASKLTSGVPSRFSGSGSGTDFTLTISSLQPEDFATYYCGGGYSSISDTTFGCGTKVEIKRT
notes: also called A26 Fab-Fv; Fab-Fv

Columns and labels:
[1] = target: T1, Human OX40 expressed on the cell surface (activated human CD4+ OX40+ T cells) (human, UniProt P43489 29-277); test: flow cytometry binding on activated human CD4+ OX40+ T cells in 5% HSA, % maximal binding, mean of 4 or 5 donors
T1 construct: whole, on cells; Also used as the target for the functional assays on human PBMC; also called cell-surface expressed OX40
T1 sequence (looked up): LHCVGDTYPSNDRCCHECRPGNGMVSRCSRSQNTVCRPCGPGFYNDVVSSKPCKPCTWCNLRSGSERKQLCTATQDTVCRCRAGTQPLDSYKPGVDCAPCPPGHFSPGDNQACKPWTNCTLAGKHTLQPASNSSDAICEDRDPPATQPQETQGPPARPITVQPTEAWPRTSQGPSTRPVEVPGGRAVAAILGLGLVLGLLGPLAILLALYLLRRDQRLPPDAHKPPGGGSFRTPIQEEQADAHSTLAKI
Description: Binding of AlexaFluor488-labelled A26 Fab-Fv to activated human CD4⁺0 X40⁺ T cells was measured by flow cytometry across a 5-log concentration range.
(§1) PBMC were isolated by separation on a Ficoll gradient and activated with 4 μg/mL PHA-L for 3 days at 37° C., 5% CO₂, 100% humidity. Following this, CD4⁺ T cells were isolated by negative selection using magnetic beads (CD4⁺ T cell Isolation Kit II for Human; Miltenyi Biotec). Approximately 1×10⁵ cells were incubated in the presence of antibody in either Facs buffer (PBS/0.2% BSA/0.09% NaN3) or Facs buffer supplemented with 5% HSA, at 4° C. The final concentration of the antibody ranged from 48 nM-0.0005 nM. The cells were washed in PBS prior to analysis by flow cytometry using a FACScalibur (Becton Dickinson). Titration data sets were also produced for isotype control antibodies for each A26 format to determine non specific binding. The number of moles of bound antibody was calculated by using interpolated values from a standard curve generated from beads comprised of differing but known amounts of fluorescent dye. Geometric mean fluorescence values were determined in the flow cytometric analyses of cells and beads. Non-specific binding was subtracted from the A26 Fab-Fv values and the specific binding curve thus generated analysed by non-linear regression using a one-site binding equation (Graphpad Prism®) to determine the KD.

[2] = target: T1, Human OX40 expressed on the cell …; test: cell-based or functional assay
[3] = target: T1, Human OX40 expressed on the cell …; test: cell-based or functional assay; remark: listed apart in the source
[4] = target: T2, Human OX40 (soluble analyte in BIAcore) (human, UniProt P43489 29-214, limits assumed); test: SPR (BIAcore T200), antibody captured by anti-human F(ab′)2, human OX40 as analyte; average of 4
T2 construct: also called hOX40
T2 sequence (looked up): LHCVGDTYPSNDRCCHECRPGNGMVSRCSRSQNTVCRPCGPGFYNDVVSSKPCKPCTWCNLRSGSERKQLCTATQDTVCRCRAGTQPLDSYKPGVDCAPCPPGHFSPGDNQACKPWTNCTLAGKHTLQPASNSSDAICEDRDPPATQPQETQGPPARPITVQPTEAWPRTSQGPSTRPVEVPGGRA
Description: (§2) BIA (Biamolecular Interaction Analysis) was performed using a BIAcore T200 (GE Healthcare). Affinipure F(ab′)₂ Fragment goat anti-human IgG, F(ab′)₂ fragment specific (Jackson ImmunoResearch) was immobilised on a CM5 Sensor Chip via amine coupling chemistry to a capture level of ≈5000 response units (RUs). HBS-EP buffer (10 mM HEPES pH 7.4, 0.15 M NaCl, 3 mM EDTA, 0.05% Surfactant P20, GE Healthcare) was used as the running buffer with a flow rate of 10 μL/min. A 10 μL injection of A26 Fab′ at 0.5 μg/mL or A26Fab-dsFv at 1 μg/mL was used for capture by the immobilised anti-human IgG-F(ab′)₂. Human OX40 was titrated over the captured A26 at various concentrations (25 nM to 1.5625 nM) at a flow rate of 30 μL/min. The surface was regenerated by 2×10 μL injection of 50 mM HCl, followed by a 5 μL injection of 5 mM NaOH at a flowrate of 10 μL/min. Background subtraction binding curves were analysed using the T200evaluation software (version 1.0) following standard procedures. Kinetic parameters were determined from the fitting algorithm.

[5] = target: T1, Human OX40 expressed on the cell …; test: flow cytometry ligand-blocking assay on activated human CD4+ OX40+ T cells; blocked ligand: recombinant OX40L (biotinylated CD252 muCD8)
Description: (§3) The capacity of A26 Fab-dsFv to block the interaction between cell-surface expressed OX40 and recombinant OX40L was measured using a flow cytometry-based ligand blocking assay. Briefly, activated human CD4⁺OX40⁺ T cells were pre-incubated with a titration of A26 Fab-Fv. Recombinant OX40L was subsequently added to the cells and allowed to bind in the presence of A26 Fab-dsFv. The proportion of OX40L bound was then detected by flow cytometry using a labelled secondary reagent.
(§4) PBMC were isolated by separation on a Ficoll gradient and activated with 4 μg/mL PHA-L (Sigma) for 3 days at 37° C., 5% CO₂, 100% humidity. CD4⁺ T cells were then purified from the culture by negative selection using MACS columns (Miltenyi Biotech, CD4⁺ T cell isolation kit II). 2×10⁵ CD4⁺ T cells were incubated in the presence of A26 Fab-dsFv (final concentration range 10 μg/mL-0.000056 μg/mL (136.6 nM-0.000765 nM)) for 30 minutes at 4° C. OX40L (biotinylated CD252 muCD8, Ancell) was added at a final concentration of 2 μg/mL and incubated for a further 30 minutes at 4° C. Cells were washed and OX40L binding detected by incubation with PE-labelled streptavadin (Jackson Immunoresearch) prior to analysis by flow cytometry using a FACS Canto (Becton Dickinson). A matched non-OX40 binding Fab-dsFv was used as a control. The inhibition curve was analysed by non-linear regression (Graphpad Prism®) to determine the IC₅₀. […]

[6] = target: T1, Human OX40 expressed on the cell …; test: flow cytometry saturation binding on activated human CD4+ OX40+ T cells, no HSA
Description: (§5) Specific binding of antibody to receptor at equilibrium across a range of antibody concentrations was used to determine KD, assuming that only a very small fraction of antibody was bound to receptor at any point on the binding curve.
as §1, with “Titration data sets were also produced for isotype control antibodies for each A26 format to determine non specific binding.” left out

[7] = target: T1, Human OX40 expressed on the cell …; test: flow cytometry saturation binding on activated human CD4+ OX40+ T cells, with 5% HSA
Description: as §5
as §1, with “Titration data sets were also produced for isotype control antibodies for each A26 format to determine non specific binding.” left out

[8] = target: T1, Human OX40 expressed on the cell …; test: flow cytometry competition on activated human CD4+OX40+ T cells; competitor OX40L (biotinylated CD252 muCD8) at 2 µg/mL
Description: as §3, §4

Mouse Serum albumin = target: T3, Mouse Serum albumin (mouse, UniProt P07724 25-608); test: SPR (BIAcore T200), Fab-Fv captured by anti-human F(ab′)2, albumin as analyte; average of 3
T3 construct: also called MSA
Description: as §2, with “Fab-Fv” for “A26 Fab′”, “0.75” for “0.5 μg/mL or A26Fab-dsFv at 1”, “Serum Albumin (HSA), Mouse Serum albumin (MSA) and Cynomolgus Serum Albumin (CSA)” for “OX40”, “Fab-Fv” for “A26”, “(50” for “(25”, “6.25” for “1.5625”

Cynomolgus Serum Albumin = target: T4, Cynomolgus Serum Albumin (cynomolgus, UniProt A2V9Z4 25-608); test: as above
T4 construct: also called CSA
Description: as §2, with “Fab-Fv” for “A26 Fab′”, “0.75” for “0.5 μg/mL or A26Fab-dsFv at 1”, “Serum Albumin (HSA), Mouse Serum albumin (MSA) and Cynomolgus Serum Albumin (CSA)” for “OX40”, “Fab-Fv” for “A26”, “(50” for “(25”, “6.25” for “1.5625”

Human Serum Albumin = target: T5, Human Serum Albumin (human, UniProt P02768 25-609); test: as above
T5 construct: also called HSA; HAS [sic]
Description: as §2, with “Fab-Fv” for “A26 Fab′”, “0.75” for “0.5 μg/mL or A26Fab-dsFv at 1”, “Serum Albumin (HSA), Mouse Serum albumin (MSA) and Cynomolgus Serum Albumin (CSA)” for “OX40”, “Fab-Fv” for “A26”, “(50” for “(25”, “6.25” for “1.5625”

Binder	EC50 (read off the curve) [1]	EC50 for inhibition of human MLR proliferative response [2]	Inhibition of IL-5 Production EC50 (human HDM in vitro assay) [3]	Inhibition of IL-13 Production EC50 (human HDM in vitro assay) [3]	Kd [4]	koff [4]	kon [4]	IC50 (read off the curve) [5]	Kd [6]	Kd [7]	EC50 [8]	Kd (Mouse Serum albumin)	koff (Mouse Serum albumin)	kon (Mouse Serum albumin)	Kd (Cynomolgus Serum Albumin)	koff (Cynomolgus Serum Albumin)	kon (Cynomolgus Serum Albumin)	Kd (Human Serum Albumin)	koff (Human Serum Albumin)	kon (Human Serum Albumin)
B1	~0.2 nM	0.88 nM	1.31 nM	0.928 nM	0.0484 nM	1.12e-05 s⁻¹	233000 M⁻¹ s⁻¹	~0.7 nM	0.322 nM	0.23 nM	0.739 nM	–	–	–	–	–	–	–	–	–
B2	~0.09 nM	0.25 nM	0.68 nM	0.335 nM	≤ 0.0468 nM	≤ 1e-05 s⁻¹	218000 M⁻¹ s⁻¹	~0.3 nM	0.085 nM	0.068 nM	0.242 nM	–	–	–	–	–	–	–	–	–
B3	–	–	–	–	–	–	–	–	–	–	–	4.16 nM	0.000368 s⁻¹	88600 M⁻¹ s⁻¹	2.66 nM	0.000189 s⁻¹	71000 M⁻¹ s⁻¹	2.93 nM	0.000163 s⁻¹	58400 M⁻¹ s⁻¹
